This note sets out measurements from patent US8669347B2, “Truncated variant of the mammalian target for rapamycin (MTOR) protein” (UCL Business PLC, priority 2007, dated 2014).

In assay [1] the test system is Raptor, Rictor, and GβL. The experiment in a line: Co-immunoprecipitation with mTOR binding partners in HEK293 cells. The following applies: anti-FLAG immunoprecipitation from transfected HEK293 cells. The protocol:
HEK293 cells were transfected with pcDNA3.1-mTORβ-FLAG and pRK-Raptor-HA or pcDNA3.1-mTORβ-FLAG and pRK-Rictor-Myc or pcDNA3.1-mTORβ-FLAG and pcRK-GβL. The supernatants of lysed cells were immunoprecipitated with anti-FLAG antibody or control nonspecific antibody. The immune complexes or total cell lysates from transfected cells (15 μg) were resolved by SDS-PAGE and probed in Western blotting with anti-HA, anti-Rictor, or anti-GβL antibodies.
HEK293 cells were washed with ice-cold phosphate-buffered saline (PBS) and extracted with the lysis buffer containing 50 mM HEPES (pH 7.5), 150 mM NaCl, 1% (v/v) Triton X100, 2 mM EDTA, 50 mM sodium fluoride, 10 mM sodium pyrophosphate, 1 mM sodium orthovanadate, and a mixture of protease inhibitors (Roche Applied Science). Whole-cell extracts were centrifuged at 10,000×g for 30 minutes at 4° C. Endogenous or transiently expressed proteins were immunoprecipitated with corresponding antibodies immobilized on protein A-Sepharose beads (Amersham Biosciences) for 3 hours at 4° C. The immune complexes were then washed once with Tris-buffered saline containing 0.05% Tween 20 and the Wash Buffer 1 (50 mM HEPES [pH 7.5], 40 mM NaCl, and 2 mM EDTA) with 1% Triton X-100, Wash Buffer 1 with 500 mM LiCl and 0.5% Triton X-100, Wash Buffer 1 with 500 mM LiCl, and Wash Buffer 2 (50 mM HEPES [pH 7.5] and 150 mM NaCl). […]

Assay [2] concerns S6K1. The experiment in a line: mTOR in vitro kinase assay, His-S6K1C substrate. Format: biochemical. The following applies: FLAG immunoprecipitate from Hek293 cells, compared with mTORα. The procedure: (§1) HEK293 cells were transfected with pcDNA3.1 or pcDNA 3.1 mTORβ. One day later, cells were starved for 24 hours and than stimulated with 10% fetal bovine serum for 1 hour. Rapamycin (10 nM) was added 30 minutes before stimulation. Cells were lysed, resolved by SDS-PAGE and immunobloted with the C-terminal anti-mTOR and pS2448 mTOR antibodies. […] Two days later, cells were lysed and immunoprecipitated with anti-FLAG antibody. The immune complexes were used in mTOR in vitro kinase assay with His-4E-BP1 and His-S6K1C as substrates. Kinase reactions were resolved by SDS-PAGE and immunoblotted with phosphospecific antibodies to 4E-BP1 p65 and S6K1 p389. The level of immunoprecipitated FLAG-mTORα and FLAG-mTORβ was measured by Western blotting with anti-FLAG.
(§2) Is mTORβ able to phosphorylate S6K and 4E-BP1, which are the main physiological substrates for mTORα? […] The immune complexes were then used in mTOR kinase reactions, containing cold ATP and recombinant 4E-BP1 or His-S6K1C. The kinase reactions were resolved by SDS-PAGE and immunoblotted with phosphospecific antibodies pT389-S6K1 and pS65-4E-BP1.
(§3) mTOR in vitro kinase assay was performed as published previously (Kim et al. 2002). […] The reactions were stopped by adding 5× sample buffer and resolved by SDS-PAGE and analyzed by immunoblotting.

The test system of assay [3] is Hek293 stable cell lines. The experiment in a line: Cell proliferation assay (Resazurin based) of Hek293 stable cell lines. Also on record: species or system human. The following applies: six independent studies. The protocol: (§4) Hek293 stable cell lines, over-expressing mTORβ wt, mTORα wt or EGFP were seeded into a 96 well plate at various densities (250, 500, 1000 and 2000 cells per well) and grown under standard conditions for 7 days. Cell numbers were than measured in each well by a Resosurin based assay. Normalized growth curves for each cell line were calculated using data from six independent experiments (A). Western blot analysis of total cell lysates of stable cell lines with antibodies to c-myc and its transcription targets (B). The level of proteins was densitometrically measured, actin normalized and folds were calculated against EGFP expressing stable cell line (C).
(§5) HEK293 stable cell lines, overexpressing mTORβ wt, mTORβ kinase-dead or EGFP were seeded into 96 well plate at various densities (1000, 2000, 4000 and 8000 cells per well) and grown under standard conditions for 5 days. Cell numbers were then measured in each well by Resazurin based assay. Normalized growth curves for each cell line were calculated using data from six independent experiments (A). Western blot analysis of total cell lysates of stable cell lines with antibodies to c-myc and its transcription targets. The level of proteins was densitometrically measured, actin normalized and folds were calculated against EGFP expressing stable cell line (B). […]
On the technique in general: Alamar Blue is a resazurin reagent that responds to reducing activity.

Assay [4] concerns 4E-BP1. The experiment in a line: mTOR in vitro kinase assay, 4E-BP1 substrate. Format: biochemical. The following applies: FLAG immunoprecipitate from Hek293 cells, recombinant 4E-BP1 substrate, compared with mTORα. The protocol:
as §1, §2, §3

For assay [5], the system named is Hek293 stable cell lines. The experiment in a line: Serum starvation cell survival, Trypan Blue dye exclusion assay. Format: cell-based, human. The following applies: stable overexpressing lines serum starved for 60 hours. The protocol: Hek293 stable cell lines, overexpressing mTORβ wt, mTORα wt, mTORβ kinase dead or EGFP were serum starved for 60 hours. Cell survival was assessed by the Trypan Blue dye exclusion assay. Data are means±SE of 5 experiments. * P value≦0.01.
The effects of mTORβ in serum starved cells were also assessed. Hek293 stable cell lines, overexpressing mTORβ wt, mTORα wt, mTORβ kinase dead or EGFP were serum starved for 60 hours. Cell survival was assessed by the Trypan Blue dye exclusion assay.

Assay [6] has as its system Hek293 cells. The experiment in a line: BrdU pulse-chase cell cycle analysis by FACS. It is filed as cell-based, human. Conditions: overexpressing cells vs mTORα or control (EGFP) cells; BrdU 30 minutes, chased 24 hours. The protocol:
HEK293 cells stably overexpressing mTORβ, mTORα or EGFP were pulse labeled with BrdU for 30 minutes and chased every 2 hours for 24 hours. The incorporation of BrdU was measured by FACS analysis. Duration of G1, S and G2 phases of cell cycle observed for each cell line is presented on graph. SD, p=0.05.
To further investigate the role of mTORβ in the cell cycle, Hek293 cells overexpressing mTORβ, mTORα or EGFP were pulse labeled with BrdU for 30 minutes and chased every 2 hours for 24 hours. Incorporation of BrdU into the cells was measured by FACS analysis. The duration of the G1, S and G2 phases of cell cycle observed for each cell line was determined (see FIG. 12). The duration of S and G2 phases were similar in all three cell groups. However, the duration of the G1 phase was shorter in the mTORβ overexpressing cells than in the mTORα or control cells.
(A flow cytometer gives signals particle by particle.)

Assay [7] concerns Hek293 cells. The experiment in a line: Colony formation in agarose (oncogenic potential). Format: cell-based, human. Conditions: stably overexpressing cells, 14 days, MTT stain, compared with mTORα and control cells. The procedure:
HEK293 cells stably overexpressing mTORβ, mTORα or EGFP were plated in a thin layer of agarose in culture medium. After 14 days, colonies were stained using MTT (A). Colonies were counted using Quantity One Software (Bio-Rad) and folds were plotted (B). Data are means±SE of 4 experiments. * P value≦0.01.
To further investigate the effect of mTORβ expression on cell oncogenic potential, Hek293 cells stably overexpressing mTORβ, mTORα or EGFP were plated in a thin layer of agarose in culture medium. After 14 days, colonies were stained using MTT (see FIG. 14A). Colonies were counted using quantity 1 software (Bio-Rad) and folds were plotted (see FIG. 14B).

The test system of assay [8] is Hek293 cells. The experiment in a line: Recovery from Sorbitol-induced stress. It is filed as cell-based, human. Conditions: overexpressing cells, compared with mTORα overexpressing cells.
Assay [9] relates to c-Myc. The experiment in a line: Western blot of c-Myc protein level in transfected HEK293 cells. Conditions: HEK293 transiently transfected, lysed two days after transfection. It is filed as cell-based, human. The protocol:
as §4, §5

B1: mTORβ: splice form of mTOR: fusion of amino acids 1 to 23 and 1867 to 2549 of mTORα, 706 amino acids (SEQ ID NO: 2) (protein, listed as Homo sapiens)
chain: MLGTGPAAATTAATTSSNVSVLQKKVTEDLSKTLLMYTVPAVQGFFRSISLSRGNNLQDTLRVLTLWFDYGHWPDVNEALVEGVKAIQIDTWLQVIPQLIARIDTPRPLVGRLIHQLLTDIGRYHPQALIYPLTVASKSTTTARHNAANKILKNMCEHSNTLVQQAMMVSEELIRVAILWHEMWHEGLEEASRLYFGERNVKGMFEVLEPLHAMMERGPQTLKETSFNQAYGRDLMEAQEWCRKYMKSGNVKDLTQAWDLYYHVFRRISKQLPQLTSLELQYVSPKLLMCRDLELAVPGTYDPNQPIIRIQSIAPSLQVITSKQRPRKLTLMGSNGHEFVFLLKGHEDLRQDERVMQLFGLVNTLLANDPTSLRKNLSIQRYAVIPLSTNSGLIGWVPHCDTLHALIRDYREKKKILLNIEHRIMLRMAPDYDHLTLMQKVEVFEHAVNNTAGDDLAKLLWLKSPSSEVWFDRRTNYTRSLAVMSMVGYILGLGDRHPSNLMLDRLSGKILHIDFGDCFEVAMTREKFPEKIPFRLTRMLTNAMEVTGLDGNYRITCHTVMEVLREHKDSVMAVLEAFVYDPLLNWRLMDTNTKGNKRSRTRTDSYSAGQSVEILDGVELGEPAHKKTGTTVPESIHSFIGDGLVKPEALNKKAIQIINRVRDKLTGRDFSHDDTLDVPTQVELLIKQATSHENLCQCYIGWCPFW
Turning to B1, in assay [1], the “complex formation with exogenously expressed Raptor, Rictor, and GβL” value is on record as “form specific complexes”. For the same molecule, the “phosphorylation of S6K1 (pT389) in vitro” value in assay [2] was “to a lesser extent than mTORα”. Further, the “proliferation rate in comparison to control (EGFP) cells” value in [3] (overexpressing stable lines grown 5 days) was “approximately 1.6 times faster”. In addition, in assay [3] (overexpressing stable lines grown 7 days), the “proliferation compared to control (EGFP) cells” value is “proliferate faster”. The “phosphorylation of 4E-BP1 (pS65) in vitro” value in assay [4] was “to a lesser extent than mTORα”. Further, in [5], the “cell survival after serum starvation” value is given as “protected cells from starvation induced cell death”. Moreover, in assay [6], the “duration of the G1 phase” value is on record as “shorter”. Further, in assay [7], the “cell oncogenic potential (colonies in agarose)” value was “increase in cell oncogenic potential”. Besides, the “recovery from Sorbitol-induced stress” value in [8] is recorded as “much faster”. The c-Myc protein level entry in assay [9] is “significant increase”.
